Test results published in patent publication US11278600B2, “Human alpha-galactosidase variants” (Codexis, Inc., priority 2014, dated 2022).
Residue numbers refer to the chain shown, from its start.

Columns and labels:
Type in all cases: biochemical
[1] = HTP-analysis of yeast culture supernatants, no challenge (MUGal hydrolysis); conditions: activity of the variant/activity of Rd3BB (SEQ ID NO: 13)
Outline: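 Activity read as 4-methylumbelliferyl α-D-galactopyranoside hydrolysis: fluorescence (355/448 nm) after sodium carbonate stop, following 30-180 min at 37° C with 2 mM MUGal stock at pH 4.6–4.8. Enzyme source is unchallenged culture supernatant of INVSc1 yeast expressing GLA variants, grown 66-84 h at 30° C.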

[2] = HTP-analysis of supernatants pretreated with acid (MUGal hydrolysis); conditions: activity of the variant/activity of Rd3BB (SEQ ID NO: 13); for Relative Activity of GLA Variants After Challenge at pH 3.3: yeast supernatant
Outline: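 Fluorescence of MUGal hydrolysis (Ex. 355 nm, Em. 448 nm) is read after sodium carbonate quench. The enzyme source is INVSc1 yeast culture supernatant, first exposed to pH 3.3-4.3 McIlvaine buffer at 37° C. for 1-3 h, then reacted at pH 4.8 for 30-180 minutes.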

[3] = HTP-analysis of supernatants pretreated with base (MUGal hydrolysis); conditions: activity of the variant/activity of Rd3BB (SEQ ID NO: 13), challenge at pH 9.7
Outline: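 GLA variants secreted from yeast INVSc1; culture supernatants pre-incubated with McIlvaine buffer pH 7.0–8.2 or 200 mM bicarbonate pH 9.1–9.7 at 37° C. for 1–18 h. Residual activity: MUGal (4 mM stock) hydrolysis at pH 4.3–4.8, 37° C., 30–180 min, carbonate quench; fluorescence Ex 355/Em 448 nm.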

B1: 538 (protein)
chain: LDNGLARTPTMGWLHWERFMCNLDCQEEPDSCISEKLFMEMAERMVSEGWKDAGYEYLCIDDCWMAPQRDSEGRLQADPQRFPHGIRQLANHVHSKGLKLGIYADVGNKTCAGFPGSFGYYDIDAQTFADWGVDLLKFDGCYCDSLENLADGYKHMSLALNRTGRSIVYSCEWPLYMWPFQKPNYTEIRQYCNHWRNFADIDDSWASIKSILDWTSRNQERIVDVAGPGGWNDPDMLVIGNFGLSWDQQVTQMALWAIMAAPLFMSNDLRHISPQAKALLQDKDVICINQDPLGKQGYQLRKGDNFEVWERPLSGDAWAVAIINRQEIGGPRSYTIPVASLGKGVACNPACFITQLLPVKRQLGFYNWTSRLKSHINPTGTVLLQLENTMQMSLKDLL
modifications: Synthetic Polypeptide sequence of Variant No. 538 of mature Human GLA
Relative Activity of GLA Variants After No Challenge (NC) [1]: + (+ = 1.5 to 5 relative activity over Rd3BB (SEQ ID NO: 13))
Relative Activity of GLA Variants After Challenge at pH 3.7 [2]: + (+ = 1.5 to 5 relative activity over Rd3BB (SEQ ID NO: 13))
Relative Activity of GLA Variants After Challenge at pH 9.7 [3]: + (+ = 1.5 to 5 relative activity over Rd3BB (SEQ ID NO: 13))

B2: 539 (protein)
chain: B1 chain with C287H
modifications: Synthetic Polypeptide sequence of Variant No. 539 of mature Human GLA
Relative Activity of GLA Variants After No Challenge (NC) [1]: + (+ = 1.5 to 5 relative activity over Rd3BB (SEQ ID NO: 13))
Relative Activity of GLA Variants After Challenge at pH 3.7 [2]: + (+ = 1.5 to 5 relative activity over Rd3BB (SEQ ID NO: 13))
Relative Activity of GLA Variants After Challenge at pH 9.7 [3]: ++ (++ = >5 to 10 relative activity over Rd3BB (SEQ ID NO: 13))

B3: 546 (protein)
chain: B1 chain with C287A, K295E
modifications: Synthetic Polypeptide sequence of Variant No. 546 of mature Human GLA
Relative Activity of GLA Variants After No Challenge (NC) [1]: + (+ = 1.5 to 5 relative activity over Rd3BB (SEQ ID NO: 13))
Relative Activity of GLA Variants After Challenge at pH 3.7 [2]: +++ (+++ = >10 relative activity over Rd3BB (SEQ ID NO: 13))
Relative Activity of GLA Variants After Challenge at pH 9.7 [3]: ++ (++ = >5 to 10 relative activity over Rd3BB (SEQ ID NO: 13))

B4: 516 (protein)
chain: B1 chain with D2E, C287A, Q326G
modifications: Synthetic Polypeptide sequence of Variant No. 516 of mature Human GLA
Relative Activity of GLA Variants After No Challenge (NC) [1]: + (+ = 1.5 to 5 relative activity over Rd3BB (SEQ ID NO: 13))
Relative Activity of GLA Variants After Challenge at pH 3.7 [2]: +++ (+++ = >10 relative activity over Rd3BB (SEQ ID NO: 13))
Relative Activity of GLA Variants After Challenge at pH 9.7 [3]: + (+ = 1.5 to 5 relative activity over Rd3BB (SEQ ID NO: 13))

B5: 545 (protein)
chain: B1 chain with C287A, K295A
modifications: Synthetic Polypeptide sequence of Variant No. 545 of mature Human GLA
Relative Activity of GLA Variants After No Challenge (NC) [1]: + (+ = 1.5 to 5 relative activity over Rd3BB (SEQ ID NO: 13))
Relative Activity of GLA Variants After Challenge at pH 3.7 [2]: + (+ = 1.5 to 5 relative activity over Rd3BB (SEQ ID NO: 13))
Relative Activity of GLA Variants After Challenge at pH 9.7 [3]: ++ (++ = >5 to 10 relative activity over Rd3BB (SEQ ID NO: 13))

B6: 540 (protein)
chain: B1 chain with C287M
modifications: Synthetic Polypeptide sequence of Variant No. 540 of mature Human GLA
Relative Activity of GLA Variants After No Challenge (NC) [1]: + (+ = 1.5 to 5 relative activity over Rd3BB (SEQ ID NO: 13))
Relative Activity of GLA Variants After Challenge at pH 3.7 [2]: + (+ = 1.5 to 5 relative activity over Rd3BB (SEQ ID NO: 13))
Relative Activity of GLA Variants After Challenge at pH 9.7 [3]: ++ (++ = >5 to 10 relative activity over Rd3BB (SEQ ID NO: 13))

B7: 613 (protein)
chain: B1 chain with S47N, S166P, H271A, C287A, M390Q
modifications: Synthetic Polypeptide sequence of Variant No. 613 of mature Human GLA
Relative Activity of GLA Variants After No Challenge (NC) ([1]; yeast supernatant): + (+ = 1.5 to 5 relative activity over Rd3BB (SEQ ID NO: 13))
Relative Activity of GLA Variants After Challenge at pH 3.3 [2]: ++ (++ = >5 to 10 relative activity over Rd3BB (SEQ ID NO: 13))
Relative Activity of GLA Variants After Challenge at pH 9.7 ([3]; yeast supernatant): ++ (++ = >5 to 10 relative activity over Rd3BB (SEQ ID NO: 13))

B8: 633 (protein)
chain: B1 chain with E43D, H92S, S166P, C287A
modifications: Synthetic Polypeptide sequence of Variant No. 633 of mature Human GLA
Relative Activity of GLA Variants After No Challenge (NC) ([1]; yeast supernatant): + (+ = 1.5 to 5 relative activity over Rd3BB (SEQ ID NO: 13))
Relative Activity of GLA Variants After Challenge at pH 3.3 [2]: ++ (++ = >5 to 10 relative activity over Rd3BB (SEQ ID NO: 13))
Relative Activity of GLA Variants After Challenge at pH 9.7 ([3]; yeast supernatant): ++ (++ = >5 to 10 relative activity over Rd3BB (SEQ ID NO: 13))

B9: 542 (protein)
chain: B1 chain with D282G, C287A
modifications: Synthetic Polypeptide sequence of Variant No. 542 of mature Human GLA
Relative Activity of GLA Variants After No Challenge (NC) [1]: + (+ = 1.5 to 5 relative activity over Rd3BB (SEQ ID NO: 13))
Relative Activity of GLA Variants After Challenge at pH 3.7 [2]: + (+ = 1.5 to 5 relative activity over Rd3BB (SEQ ID NO: 13))
Relative Activity of GLA Variants After Challenge at pH 9.7 [3]: ++ (++ = >5 to 10 relative activity over Rd3BB (SEQ ID NO: 13))

B10: 634 (protein)
chain: B1 chain with E43D, H92E, S166P, C287A
modifications: Synthetic Polypeptide sequence of Variant No. 634 of mature Human GLA
Relative Activity of GLA Variants After No Challenge (NC) ([1]; yeast supernatant): + (+ = 1.5 to 5 relative activity over Rd3BB (SEQ ID NO: 13))
Relative Activity of GLA Variants After Challenge at pH 3.3 [2]: ++ (++ = >5 to 10 relative activity over Rd3BB (SEQ ID NO: 13))
Relative Activity of GLA Variants After Challenge at pH 9.7 ([3]; yeast supernatant): ++ (++ = >5 to 10 relative activity over Rd3BB (SEQ ID NO: 13))

B11: 541 (protein)
chain: B1 chain with D282A, C287A
modifications: Synthetic Polypeptide sequence of Variant No. 541 of mature Human GLA
Relative Activity of GLA Variants After No Challenge (NC) [1]: + (+ = 1.5 to 5 relative activity over Rd3BB (SEQ ID NO: 13))
Relative Activity of GLA Variants After Challenge at pH 3.7 [2]: + (+ = 1.5 to 5 relative activity over Rd3BB (SEQ ID NO: 13))
Relative Activity of GLA Variants After Challenge at pH 9.7 [3]: ++ (++ = >5 to 10 relative activity over Rd3BB (SEQ ID NO: 13))

B12: 544 (protein)
chain: B1 chain with D282V, C287A
modifications: Synthetic Polypeptide sequence of Variant No. 544 of mature Human GLA
Relative Activity of GLA Variants After No Challenge (NC) [1]: + (+ = 1.5 to 5 relative activity over Rd3BB (SEQ ID NO: 13))
Relative Activity of GLA Variants After Challenge at pH 3.7 [2]: + (+ = 1.5 to 5 relative activity over Rd3BB (SEQ ID NO: 13))
Relative Activity of GLA Variants After Challenge at pH 9.7 [3]: + (+ = 1.5 to 5 relative activity over Rd3BB (SEQ ID NO: 13))

B13: 543 (protein)
chain: B1 chain with D282M, C287A
modifications: Synthetic Polypeptide sequence of Variant No. 543 of mature Human GLA
Relative Activity of GLA Variants After No Challenge (NC) [1]: + (+ = 1.5 to 5 relative activity over Rd3BB (SEQ ID NO: 13))
Relative Activity of GLA Variants After Challenge at pH 3.7 [2]: + (+ = 1.5 to 5 relative activity over Rd3BB (SEQ ID NO: 13))
Relative Activity of GLA Variants After Challenge at pH 9.7 [3]: + (+ = 1.5 to 5 relative activity over Rd3BB (SEQ ID NO: 13))

B14: 611 (protein)
chain: B1 chain with S166P, C287A, M390Q
modifications: Synthetic Polypeptide sequence of Variant No. 611 of mature Human GLA
Relative Activity of GLA Variants After No Challenge (NC) ([1]; yeast supernatant): + (+ = 1.5 to 5 relative activity over Rd3BB (SEQ ID NO: 13))
Relative Activity of GLA Variants After Challenge at pH 3.3 [2]: +++ (+++ = >10 relative activity over Rd3BB (SEQ ID NO: 13))
Relative Activity of GLA Variants After Challenge at pH 9.7 ([3]; yeast supernatant): ++ (++ = >5 to 10 relative activity over Rd3BB (SEQ ID NO: 13))

B15: 610 (protein)
chain: B1 chain with S47T, S166P, M259E, C287A, M390Q
modifications: Synthetic Polypeptide sequence of Variant No. 610 of mature Human GLA
Relative Activity of GLA Variants After No Challenge (NC) ([1]; yeast supernatant): + (+ = 1.5 to 5 relative activity over Rd3BB (SEQ ID NO: 13))
Relative Activity of GLA Variants After Challenge at pH 3.3 [2]: + (+ = 1.5 to 5 relative activity over Rd3BB (SEQ ID NO: 13))
Relative Activity of GLA Variants After Challenge at pH 9.7 ([3]; yeast supernatant): − (− = <1.5 relative activity to Rd3BB (SEQ ID NO: 13))
